For data set [1], the target named is AtCAD-H protein (cinnamyl alcohol dehydrogenase) (Arabidopsis thaliana, UniProt F4K152). As to the kind of experiment: Enzyme activity of purified AtCAD-H protein, backward reaction (Lineweaver-Burk). Type of data set: biochemical. Particulars: substrate coniferyl alcohol, NADPH^+ in place of NADPH, Tris-HCl pH 9.3, 37° C. As for the experimental part: (§1) In order to identify whether the isolated protein has the cinnamyl alcohol dehydrogenase function related to lignin biosynthesis, the enzyme activity in forward reaction was measured using coniferaldehyde as a substrates. Also, the enzyme activity in backward reaction was measured using coniferyl alcohol as a substrates so as to identify whether the enzyme also involves in backward reaction or not.
(§2) The enzyme activities were measured at 405 nm using a microplate reader (Bio-rad Backman Microplate Reader) adjusted at 37° C. according to the method of Mitchell et al. (Mitchell et al. Planta, 208: 31-47, 1998). In […] of the reaction solution for the measurement of the enzyme activity in forward reaction, 100 mM Tris-buffer (Tris-HCl pH 9.3), […], and 2-3 μg of the protein purified in Example 2-2 were contained. The conditions of the reaction solution for the measurement of the enzyme activity in backward reaction is the same as that of the reaction solution of forward reaction, except that 100 mM NADPH^+ was contained in place of 100 mM NADPH. […]
(§3) Meanwhile, the enzyme activity of the purified protein was suitable for Michaelis-Menten kinetics for 100 mM coniferyl alcohol, that is, the substrate of backward reaction. The reaction velocities were measured according to variation of substrate concentration, and represented in a Lineweaver-Burk's plot (see FIG. 2b). […]

Substrate in data set [2]: COc1cc(/C=C/CO)ccc1O
Described as above. Type of data set: biochemical, Arabidopsis thaliana. Particulars: other: backward reaction, substrate coniferyl alcohol, NADPH^+ in place of NADPH, Tris-HCl pH 9.3, 37° C. As for the experimental part: as §1, §2, §3

Substrate in data set [3]: COc1cc(/C=C/C=O)ccc1O
As to the kind of experiment: Enzyme activity of purified AtCAD-H protein, forward reaction (Lineweaver-Burk). Type of data set: biochemical, Arabidopsis thaliana. Particulars: other: forward reaction, substrate coniferaldehyde, NADPH, Tris-HCl pH 9.3, 37° C., 405 nm. As for the experimental part: as §1, §2
The enzyme activity of the purified protein was suitable for Michaelis-Menten kinetics for 100 mM coniferaldehyde, that is, the substrate of forward reaction. The reaction velocities were measured according to variation of substrate concentration, and represented in a Lineweaver-Burk's plot (see FIG. 2a).

The source of these data is US20080005813A1, “Polypeptide Having Function of Cinnamyl Alcohol Dehydrogenase, Polynucleotide Encoding the Polypeptide and Those Uses” (GENOMINE, INC., priority 2005, published 2008).

In general, Km refers to the substrate concentration at which the rate is half of its maximum.

For the molecule `COc1cc(/C=C/CO)ccc1O` [coniferyl alcohol], the Vmax in data set [1] stood at 0.102.

B1: AtCAD-H protein (cinnamyl alcohol dehydrogenase) (Arabidopsis thaliana) (protein)
chain: MANSGEGKVVCVTGASGYIASWLVKFLLSRGYTVKASVRDPSDPKKTQHLVSLEGAKERLHLFKADLLEQGSFDSAIDGCHGVFHTASPFFNDAKDPQAELIDPAVKGTLNVLNSCAKASSVKRVVVTSSMAAVGYNGKPRTPDVTVDETWFSDPELCEASKMWYVLSKTLAEDAAWKLAKEKGLDIVTINPAMVIGPLLQPTLNTSAAAILNLINGAKTFPNLSFGWVNVKDVANAHIQAFEVPSANGRYCLVERVVHHSEIVNILRELYPNLPLPERCVDENPYVPTYQVSKDKTRSLGIDYIPLKVSIKETVESLKEKGFAQF
Take B1: the Km in data set [2] came to 374 µM; in data set [3], 19.8 µM.
